From IntAct's records for PubMed 19122675

B1: Calmodulin-binding transcription activator 3 (Arabidopsis thaliana (Mouse-ear cress)), Q8GSA7 (parent)
chain: MAEARRFSPVHELDVGQILSEARHRWLRPPEICEILQNYQRFQISTEPPTTPSSGSVFMFDRKVLRYFRKDGHNWRKKKDGKTVKEAHERLKAGSVDVLHCYYAHGQDNENFQRRSYWLLQEELSHIVFVHYLEVKGSRVSTSFNRMQRTEDAARSPQETGDALTSEHDGYASCSFNQNDHSNHSQTTDSASVNGFHSPELEDAESAYNQHGSSTAYSHQELQQPATGGNLTGFDPYYQISLTPRDSYQKELRTIPVTDSSIMVDKSKTINSPGVTNGLKNRKSIDSQTWEEILGNCGSGVEALPLQPNSEHEVLDQILESSFTMQDFASLQESMVKSQNQELNSGLTSDRTVWFQGQDMELNAISNLASNEKAPYLSTMKQHLLHGALGEEGLKKMDSFNRWMSKELGDVGVIADANESFTQSSSRTYWEEVESEDGSNGHNSRRDMDGYVMSPSLSKEQLFSINDFSPSWAYVGCEVVVFVTGKFLKTREETEIGEWSCMFGQTEVPADVISNGILQCVAPMHEAGRVPFYVTCSNRLACSEVREFEYKVAESQVFDREADDESTIDILEARFVKLLCSKSENTSPVSGNDSDLSQLSEKISLLLFENDDQLDQMLMNEISQENMKNNLLQEFLKESLHSWLLQKIAEGGKGPSVLDEGGQGVLHFAASLGYNWALEPTIIAGVSVDFRDVNGWTALHWAAFFGRERIIGSLIALGAAPGTLTDPNPDFPSGSTPSDLAYANGHKGIAGYLSEYALRAHVSLLSLNDKNAETVEMAPSPSSSSLTDSLTAVRNATQAAARIHQVFRAQSFQKKQLKEFGDKKLGMSEERALSMLAPKTHKSGRAHSDDSVQAAAIRIQNKFRGYKGRKDYLITRQRIIKIQAHVRGYQFRKNYRKIIWSVGVLEKVILRWRRKGAGLRGFKSEALVEKMQDGTEKEEDDDFFKQGRKQTEDRLQKALARVKSMVQYPEARDQYRRLLNVVNDIQESKVEKALENSEATCFDDDDDLIDIEALLEDDDTLMLPMSSSLWTS

Variants of: B1
Details: with calm5_soltu PCM5, Q7DMN9

Variant	effect of a mutation on the interaction
K907E	disrupting interaction
